Measurements published in publication PMC9904299.

Each substance was assayed against mitochondrially targeted human MSRA tagged with tGFP at its C-terminus (targeting sequence of ornithine carbamoyltransferase fused to the N-terminus of MSRA) (assay: co-immunoprecipitation (anti-FLAG IP, anti-tGFP blot), band intensity quantitated with Odyssey infrared scanner). Details: HEK293 cells; 3 separate experiments; parent: est. 100; read off a plot.

| Substance | percent of parent [%] |
| --- | --- |
| FLAG-tagged human Ndufaf2 M85V | 90 |
| FLAG-tagged human Ndufaf2 M85V; M160V | 36 |
| FLAG-tagged human Ndufaf2 M160V | 90 |
